{"source": "paper PMC12132507", "about": "(bioRxiv, 2025)", "binders": {"B1": {"name": "N-terminal domain of the clathrin heavy chain, TD40 (domain or fragment)", "chain": "MAQILPIRFQEHLQLQNLGINPANIGFSTLTMESDKFICIREKVGEQAQVVIIDMNDPSNPIRRPISADSAIMNPASKVIALKAGKTLQIFNIEMKSKMKAHTMTDDVTFWKWISLNTVALVTDNAVYHWSMEGESQPVKMFDRHSSLAGCQIINYRTDAKQKWLLLTGISAQQNRVVGAMQLYSVDRKVSQPIEGHAASFAQFKMEGNAEESTLFCFAVRGQAGGKLHIIEVGTPPTGNQPFPKKAVDVFFPPEAQNDFPVAMQISEKHDVVFLITKYGYIHLYDLETGTCIYMNRISGETIFVTAPHEATAGIIGVNRKGQVLSVCVEEENIIPYITNVLQNPDLALRMAVRNNLAGAEEL"}}, "key": {"[1]": {"target": "T1, Eps15IDR (C-terminal intrinsically disordered region of human Eps15, residues 481 to 897) (human, UniProt P42566 481-896)", "T1 sequence": "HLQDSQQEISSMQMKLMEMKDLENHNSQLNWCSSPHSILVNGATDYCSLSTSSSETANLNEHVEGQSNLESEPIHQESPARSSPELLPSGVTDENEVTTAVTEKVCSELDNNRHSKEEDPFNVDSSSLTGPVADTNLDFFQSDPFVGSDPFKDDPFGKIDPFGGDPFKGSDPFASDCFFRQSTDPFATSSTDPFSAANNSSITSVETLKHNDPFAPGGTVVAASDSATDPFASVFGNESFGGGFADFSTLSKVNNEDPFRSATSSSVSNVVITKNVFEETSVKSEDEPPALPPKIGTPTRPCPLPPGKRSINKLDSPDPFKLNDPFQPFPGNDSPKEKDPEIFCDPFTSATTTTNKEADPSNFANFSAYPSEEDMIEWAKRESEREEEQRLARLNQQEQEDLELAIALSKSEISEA", "assay": "NMR titration"}, "[2]": {"target": "B1", "assay": "NMR titration"}}}
{"binder": "B1", "values": [{"measurement": "binding result", "setting": "[1]", "value": "binds"}]}
{"binder": "Eps15(569-671) (domain or fragment) SGVTDENEVTTAVTEKVCSELDNNRHSKEEDPFNVDSSSLTGPVADTNLDFFQSDPFVGSDPFKDDPFGKIDPFGGDPFKGSDPFASDCFFRQSTDPFATSST", "values": [{"measurement": "binding result", "setting": "[2]", "value": "binds"}]}
{"binder": "Eps15(648-780) (domain or fragment) KGSDPFASDCFFRQSTDPFATSSTDPFSAANNSSITSVETLKHNDPFAPGGTVVAASDSATDPFASVFGNESFGGGFADFSTLSKVNNEDPFRSATSSSVSNVVITKNVFEETSVKSEDEPPALPPKIGTPTR", "values": [{"measurement": "binding result", "setting": "[2]", "value": "binds"}]}
